The assay has as its target eGFP-myc-Orai1 (UniProt Q96D31). Briefly: cell-based or functional assay.

eGFP-myc-Orai1, sequence (Q96D31 whole entry): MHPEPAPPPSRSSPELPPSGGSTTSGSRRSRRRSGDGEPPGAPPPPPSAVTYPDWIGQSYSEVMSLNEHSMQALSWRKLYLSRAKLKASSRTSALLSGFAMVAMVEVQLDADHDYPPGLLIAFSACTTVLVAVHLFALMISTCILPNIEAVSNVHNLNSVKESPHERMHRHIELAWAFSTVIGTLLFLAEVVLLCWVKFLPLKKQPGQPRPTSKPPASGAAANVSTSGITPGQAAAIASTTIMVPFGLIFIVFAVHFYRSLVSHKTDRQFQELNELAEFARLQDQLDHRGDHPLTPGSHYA

The substance mCh-CAD (from UniProt Q13586 342-448) came in with a diffusion coefficient fitted to FRAP of a single cell expressing eGFP-Orai1 with CAD of 0.026 µm^2/s; an effective diffusion coefficient (D) of GFP-Orai1 co-expressed with CAD, FRAP in HEK 293 cells of 0.036 µm^2/s; a mobile fraction of GFP-Orai1 co-expressed with CAD, FRAP of 87%; a slowing of Orai1 diffusion by CAD, FRAP of 2 fold.

Source of the values: patent publication US20120165265A1, “Calcium Signaling Modulators Involving STIM and ORAI Proteins” (priority 2009, published 2012).
